Literature values, collected in patent publication US20220273793A1, “HORSE IL-31 INDUCED PRURITUS MODEL” (priority 2021, published 2022).

T1: IL-31 (Canis lupus familiaris, UniProt A0A8I3S3D1)
T1 construct: host or cells: endogenous IL-31 of client dogs with atopic dermatitis
T1 sequence (A0A8I3S3D1 24-159): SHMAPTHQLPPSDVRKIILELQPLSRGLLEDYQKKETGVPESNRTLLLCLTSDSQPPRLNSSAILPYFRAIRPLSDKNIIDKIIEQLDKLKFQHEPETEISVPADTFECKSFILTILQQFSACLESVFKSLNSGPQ

B1: recombinant canine IL-31: recombinant canine IL-31 used as intravenous challenge in beagle dogs (protein)
chain: T1 sequence (A0A8I3S3D1 24-159)
B2: Cytopoint: canine anti-IL-31 monoclonal antibody (mAb) produced by Zoetis Inc. (antibody, chains of the INN, looked up, V domains shown)
VH: EVQLVESGGDLVKPGGSLRLSCVASGFTFSNYGMSWVRQAPGKGLQWVATISYGGSYTYYPDNIKGRFTISRDNAKNTLYLQMNSLRAEDTAMYYCVRGYGYDTMDYWGQGTLVTVSS
VL: EIVMTQSPASLSLSQEEKVTITCKASQSVSFAGTGLMHWYQQKPGQAPKLLIYRASNLEAGVPSRFSGSGSGTDFSFTISSLEPEDVAVYYCQQSREYPWTFGQGTKLEIK

Legend:
beagle dogs = conditions: 1.5 μg/kg intravenous challenge dose; cited from earlier work
IL-31 = target: T1, IL-31; conditions: dogs with atopic dermatitis; cited from earlier work

Molecule	pruritus duration (beagle dogs)	effect on pruritus and skin lesions (IL-31)
B1	< 24 h	
B2		reduce pruritus and skin lesions
